Assay results from US20230365623A1, “DERIVATISATION OF PEPTIDES AND PROTEINS” (FLOREY INSTITUTE OF NEUROSCIENCE AND MENTAL HEALTH, priority 2020, published 2023).

Test: Atomic force microscopy studies for fibrillation (glucagon)
Format: physicochemical
Details: 287 mM, Milli-Q water pH 2, 37° C., 4 days
Procedure: For atomic force microscopy experiments, 287 mM solutions of glucagon and glycoglucagon prepared by dissolving each of glucagon and glycoglucagon obtained in Example 9 in Milli-Q water, adjusted to pH 2 with HCl were incubated at 37° C. for four days. Topographic images of glucagon aggregates were collected with a Dimension iCon Atomic Force Microscopy (Bruker, Billerica, MA, USA). Tapping mode atomic force microscopy (AFM) images were recorded using silicon cantilevers (model RTESPA, Veeco, Santa Barbara, CA) with resonance frequency ˜300 kHz, nominal tip radius 8 nm and nominal spring constant 42 N/m.
Representative AFM height images are shown in FIG. 11, of (A) glucagon (287 mM) and (B) glycoglucagon (287 mM) incubated at 37° C. for 4 days. The vertical colour scale is (A) 6 nm and (B) 3 nm. Scan size: 10×5 μm^2. Each of the images of FIG. 11 are representative of 3-5 scans at different locations with varying scan sizes from 1-10 micron.

## native glucagon: human glucagon peptide (SEQ ID NO:5), synthesised by solid phase synthesis [reference compound]
  fibril formation (AFM): forms fibrils
